Experimental data reported in PMC13083955.

Key:
[1] = biological target: Dsk2 UBA (Saccharomyces cerevisiae) (UniProt P48510); conditions: cited from earlier work
[2] = biological target: full-length Dsk2 (yeast (S. cerevisiae)) (UniProt P48510)

phase separation of Dsk2 alone, saturation concentration (csat) against temperature (20 mM NaPhosphate pH 6.8, 150 mM NaCl, 7.5% PEG 8000, 0.5 mM EDTA) [2]	Substance	Kd [1]
	Dsk2 UBL (from UniProt P48510)	80 µM
10 µM	full-length Dsk2 (from UniProt P48510 1-373) (natural protein)	
